Substitutions are numbered along the chain they refer to. Names and notes keep the numbering of the source. One block for each binder: values may come before it.
How the values were obtained:
[1] = target: Human CD28 (ELISAs of Examples 4 and 13) (human, UniProt P10747 19-152, limits assumed); assay: ELISA
[2] = target: T1, His-tagged human CD28 protein (human, UniProt P10747 19-152); assay: Octet BLI, mAb captured;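 note: Anti-human Fc biosensors captured the antibodies, then His-tagged protein analytes at 100 nM associated for 300 s and dissociated for 300 s, fitted by a 1:1 Langmuir model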
T1 construct: not shown: His tag

[3] = target: T2, His-tagged human CTLA4 protein (human, UniProt P16410 36-161, limits assumed); assay: Octet BLI, mAb captured;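 note: Anti-human Fc biosensors captured the antibodies, then His-tagged protein analytes at 100 nM associated for 300 s and dissociated for 300 s, fitted by a 1:1 Langmuir model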
T2 construct: not shown: His tag
T2 sequence (P16410 36-161 limits assumed): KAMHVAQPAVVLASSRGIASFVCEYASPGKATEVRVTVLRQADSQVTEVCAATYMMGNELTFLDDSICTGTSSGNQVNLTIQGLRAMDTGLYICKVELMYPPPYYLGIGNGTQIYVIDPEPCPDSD

[4] = target: T3, Human CD28 on cells (human, UniProt P10747 19-220); assay: flow cytometry, Jurkat cells
T3 construct: Jurkat E6-1 cells, primary human T cells, or transfected HEK293F cells; also called CD28 on Jurkat cells; CD28 on human CD3+ T cells
Method: Next, the cells were washed twice with DPBS and further incubated with a APC-anti-human IgG Fc secondary antibody (1 μg/mL, 100 μL/well, Biolegend) for 30 minutes at 4° C. Finally, the cells were washed twice with DPBS and suspended in FACS buffer for flow cytometry analysis. For analysis, the Mean Fluorescence Intensity (MFI) values versus concentrations were plotted using FlowJo 10 software (FlowJo LLC) and the data were further fitted with four-parameter non-linear regression to obtain EC₅₀ values by GraphPad Prism version 7 for Windows, GraphPad Software, La Jolla California USA, www.graphpad.com.

B12: TY24854 (antibody, human IgG4 S228P, kappa, V domains shown)
VH: EVQLVESGGGLVQPGGSLRLSCAASGYSITSGYHWGWIRQAPGKGLEWIGEIYHSGSTYYSPSLKSRVTISRDNSKNTLYLQLNSLRAEDTAVYYCARRRGDGYFDFWGQGTLVTVSS
VL: DIQLTQSPSSLSASVGDRVTITCRASQSVDFLGISFLHWYQQKPGKAPKLLIYDASNRATGIPSRFSGSGSGTDFTLTISSLQPEDFATYYCQQSYRTPLTFGQGTKVEIKR
notes: hIgG4/S241P
Kd [2]: 5.43 nM
koff [2]: 0.000353 s⁻¹
kon [2]: 64900 M⁻¹ s⁻¹
EC50 [4]: 0.6 nM

B13: TY24855 (antibody, human IgG4 S228P, kappa, V domains shown)
VH: EVQLVESGGGLVQPGGSLRLSCAASGYSITSGHHWSWIRQAPGKGLEWIGDIYHSGSTYYNPSLKSRVTISRDNSKNTLYLQLNSLRAEDTAVYYCARKDDYYAFDYWGQGTLVTVSS
VL: B12 VL with S26P, L32H, I34K, T98S, L100I
notes: hIgG4/S241P
Kd [2]: 7.93 nM
koff [2]: 0.000628 s⁻¹
kon [2]: 79200 M⁻¹ s⁻¹
Kd [3]: 4.02 nM
koff [3]: 0.00305 s⁻¹
kon [3]: 760000 M⁻¹ s⁻¹
EC50 [4]: 0.61 nM

B14: TY24871 (antibody, human IgG4 S228P, kappa, V domains shown)
VH: QVQLVQSGAEVKKPGSSVKVSCKASGFTFSSYAIHWVRQAPGQGLEWIGSIYHSGSTYYSPSLKSRVTITADKSTSTAYMELSSLRSEDTAVYYCARDVYGSYALDVWGQGTLVTVSS
VL: B12 VL with L32D, N57S, R58L, A59E, T60S, I62V, T98S, L100I
notes: hIgG4/S241P
Kd [2]: 4.99 nM
koff [2]: 0.00035 s⁻¹
kon [2]: 70100 M⁻¹ s⁻¹
EC50 [4]: 0.89 nM

B15: TY24864 (antibody, human IgG4 S228P, kappa, V domains shown)
VH: EVQLVESGGGLVQPGGSLRLSCAASGFSLSTSGVGVSWIRQAPGKGLEWIGAIYHSGSTYYSPSLKSRVTISRDNSKNTLYLQLNSLRAEDTAVYYCARYGYSYYAFDYWGQGTLVTVSS
VL: DIQLTQSPSSLSASVGDRVTITCRASQTIGSFLNWYQQKPGKAPKLLIYDASSLESGVPSRFSGSGSGTDFTLTISSLQPEDFATYYCQQSYSYQTFGQGTKVEIKR
notes: hIgG4/S241P
Kd [2]: 4.41 nM
koff [2]: 0.000416 s⁻¹
kon [2]: 94200 M⁻¹ s⁻¹
Kd [3]: 5.5 nM
koff [3]: 0.00284 s⁻¹
kon [3]: 517000 M⁻¹ s⁻¹
EC50 [4]: 0.54 nM

B16: TY24860 (antibody, human IgG4 S228P, kappa, V domains shown)
VH: B15 VH with A52E, Y100K, S103Y, Q112P
VL: DIQLTQSPSSLSASVGDRVTITCRASQDIGSFLAWYQQKPGKAPKLLIYAASSLQSGVPSRFSGSGSGTDFTLTISSLQPEDFATYYCQQSYRSPPTFGQGTKVEIKR
notes: hIgG4/S241P
Kd [2]: 6.66 nM
koff [2]: 0.000421 s⁻¹
kon [2]: 63200 M⁻¹ s⁻¹
binding result [3]: no binding (tested: 100 nM CTLA4)
EC50 [4]: 0.78 nM

B17: TY24856 (antibody, human IgG4 S228P, kappa, V domains shown)
VH: EVQLVESGGGLVQPGGSLRLSCAASGYSISSGHHWSWIRQAPGKGLEWIGEIYHSGSTYYSPSLKSRVTISRDNSKNTLYLQLNSLRAEDTAVYYCARRDFGASYFDYWGQGTLVTVSS
VL: B15 VL with T28G, I29V, S31P, F32W, N34A, D50A, E55Q, S91Y, Q95S
notes: hIgG4/S241P
Kd [2]: 7.8 nM
koff [2]: 0.000538 s⁻¹
kon [2]: 68900 M⁻¹ s⁻¹
Kd [3]: 5.13 nM
koff [3]: 0.00156 s⁻¹
kon [3]: 304000 M⁻¹ s⁻¹
EC50 [4]: 0.76 nM

B18: TY24857 (antibody, human IgG4 S228P, kappa, V domains shown)
VH: B15 VH with G35A, S37G, A52E, Y100H, S103H, F107L
VL: B16 VL with R24P, I29V, S31T, F32A, L33V, A50D, Q55E, S91Y, R93S
notes: hIgG4/S241P
Kd [2]: 8.64 nM
koff [2]: 0.00063 s⁻¹
kon [2]: 72900 M⁻¹ s⁻¹
Kd [3]: 5.44 nM
koff [3]: 0.00355 s⁻¹
kon [3]: 652000 M⁻¹ s⁻¹
EC50 [4]: 0.75 nM

B19: TY24858 (antibody, human IgG4 S228P, kappa, V domains shown)
VH: B17 VH with S36T, F101Y, A103S
VL: DIQLTQSPSSLSASVGDRVTITCRASQSVSRSFLAWYQQKPGKAPKLLIYDASNRATGIPSRFSGSGSGTDFTLTISSLQPEDFATYYCQQYYRSPITFGQGTKVEIKR
notes: hIgG4/S241P
Kd [2]: 9.88 nM
koff [2]: 0.000702 s⁻¹
kon [2]: 71000 M⁻¹ s⁻¹
Kd [3]: 7.9 nM
koff [3]: 0.00242 s⁻¹
kon [3]: 306000 M⁻¹ s⁻¹
EC50 [4]: 0.7 nM

Continued, values first:

EC50 [1]: 27.8 nM
B1: TY29307 (bispecific antibody, human IgG1, kappa, N297A)
light: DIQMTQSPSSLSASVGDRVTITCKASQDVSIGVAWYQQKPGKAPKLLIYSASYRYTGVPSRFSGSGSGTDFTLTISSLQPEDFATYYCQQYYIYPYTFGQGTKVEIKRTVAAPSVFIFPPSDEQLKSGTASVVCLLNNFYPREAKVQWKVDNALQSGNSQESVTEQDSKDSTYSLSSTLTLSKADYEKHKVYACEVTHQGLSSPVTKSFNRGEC
heavy: EVQLVESGGGLVQPGGSLRLSCAASGFTFTDYTMDWVRQAPGKGLEWVADVNPNSGGSIYNQRFKGRFTLSVDRSKNTLYLQMNSLRAEDTAVYYCARNLGPSFYFDYWGQGTLVTVSSASTKGPSVFPLAPSSKSTSGGTAALGCLVKDYFPEPVTVSWNSGALTSGVHTFPAVLQSSGLYSLSSVVTVPSSSLGTQTYICNVNHKPSNTKVDKKVEPKSCDKTHTCPPCPAPELLGGPSVFLFPPKPKDTLMISRTPEVTCVVVDVSHEDPEVKFNWYVDGVEVHNAKTKPREEQYASTYRVVSVLTVLHQDWLNGKEYKCKVSNKALPAPIEKTISKAKGQPREPQVYTLPPSRKKLTKNQVKLTCLVKGFYPSDIAVEWESNGQPENNYKTTPPVLDCDGSFFLYSKLTVDKSRWQQGNVFSCSVMHEALHNHYTQKSLSLSPGK
chain: EVQLVESGGGLVQPGGSLRLSCAASGFSLSTGGVGVSWIRQAPGKGLEWIGSIYHSGSTYYNPSLKSRVTISRDNSKNTLYLQLNSLRAEDTAVYYCARYEYGYYALDYWGQGTLVTVSSGGGGSGGGGSGGGGSGGGGSDIQLTQSPSSLSASVGDRVTITCRASQSVDFYGISFLHWYQQKPGKAPKLLIYAASSLQSGVPSRFSGSGSGTDFTLTISSLQPEDFATYYCQQSYRTPPTFGQGTKVEIKEPKSSDKTHTCPPCPAPELLGGPSVFLFPPKPKDTLMISRTPEVTCVVVDVSHEDPEVKFNWYVDGVEVHNAKTKPREEQYASTYRVVSVLTVLHQDWLNGKEYKCKVSNKALPAPIEKTISKAKGQPREPQVYTDPPSRDELTKNQVSLTCLVDGFYPSDIAVEWESNGQPENCYKTTPPVLDSDGSFFLYSKLTVDKSRWQQGNVFSCSVMHEALHNHYTQDSLSLSPGK
notes: anti-HER2 Fab x CD28 scFv BC8228 (VH-VL)-Fc

EC50 [1]: 349 nM
B2: TY29310 (bispecific antibody, human IgG1, kappa, N297A)
light: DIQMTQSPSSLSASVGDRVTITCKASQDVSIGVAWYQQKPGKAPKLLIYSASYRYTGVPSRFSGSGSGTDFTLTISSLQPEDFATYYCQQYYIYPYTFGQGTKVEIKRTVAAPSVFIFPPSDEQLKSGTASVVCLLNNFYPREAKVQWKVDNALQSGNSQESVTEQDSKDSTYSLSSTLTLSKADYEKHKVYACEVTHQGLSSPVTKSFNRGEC
heavy: B1 heavy
chain: B1 chain with G32S, S37G, S52E, Y60N, I174K, P240R
notes: anti-HER2 Fab x CD28 scFv BC8235 (VH-VL)-Fc

EC50 [1]: 27.7 nM
B3: TY29309 (bispecific antibody, human IgG1, kappa, N297A)
light: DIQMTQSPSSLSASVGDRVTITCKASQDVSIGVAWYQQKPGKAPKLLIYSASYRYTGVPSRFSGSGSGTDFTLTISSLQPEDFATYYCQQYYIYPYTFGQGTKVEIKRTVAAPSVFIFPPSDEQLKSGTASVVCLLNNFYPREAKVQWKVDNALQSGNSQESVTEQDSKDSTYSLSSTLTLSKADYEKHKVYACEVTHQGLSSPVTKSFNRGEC
heavy: B1 heavy
chain: B1 chain with G32S, G103D, L107F, P240R
notes: anti-HER2 Fab x CD28 scFv BC8233 (VH-VL)-Fc

EC50 [1]: 91.3 nM
B4: TY29311 (bispecific antibody, human IgG1, kappa, N297A)
light: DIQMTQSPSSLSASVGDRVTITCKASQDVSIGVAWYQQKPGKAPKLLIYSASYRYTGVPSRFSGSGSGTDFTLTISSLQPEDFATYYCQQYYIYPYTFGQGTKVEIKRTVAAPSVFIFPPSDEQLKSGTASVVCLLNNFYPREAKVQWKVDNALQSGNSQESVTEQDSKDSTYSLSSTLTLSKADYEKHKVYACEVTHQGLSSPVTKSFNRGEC
heavy: B1 heavy
chain: B1 chain with S37G, S52E, L107F, Y172H, Q199E, P240R
notes: anti-HER2 Fab x CD28 scFv BC8237 (VH-VL)-Fc

EC50 [1]: 291 nM
B5: TY29315 (bispecific antibody, human IgG1, kappa, N297A)
light: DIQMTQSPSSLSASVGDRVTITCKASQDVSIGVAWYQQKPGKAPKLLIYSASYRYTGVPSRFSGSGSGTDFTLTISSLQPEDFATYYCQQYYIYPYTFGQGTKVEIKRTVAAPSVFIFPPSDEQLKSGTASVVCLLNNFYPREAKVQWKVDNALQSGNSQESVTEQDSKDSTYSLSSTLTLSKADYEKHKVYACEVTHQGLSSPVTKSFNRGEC
heavy: B1 heavy
chain: B1 chain with N62S, G103D, L107F, Q199E, P240L
notes: anti-HER2 Fab x CD28 scFv BC8263 (VH-VL)-Fc

EC50 [1]: 27.5 nM
B6: TY29314 (bispecific antibody, human IgG1, kappa, N297A)
light: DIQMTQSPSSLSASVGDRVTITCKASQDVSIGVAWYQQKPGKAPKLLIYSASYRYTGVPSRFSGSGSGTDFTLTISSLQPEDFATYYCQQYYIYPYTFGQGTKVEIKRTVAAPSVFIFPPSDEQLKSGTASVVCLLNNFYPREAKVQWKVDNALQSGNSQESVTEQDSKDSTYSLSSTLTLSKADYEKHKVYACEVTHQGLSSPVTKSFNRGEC
heavy: B1 heavy
chain: B1 chain with G32S, S52E, N62S, G103Y, Y104S, L107F, Y172H, I174K, T238S, P240R
notes: anti-HER2 Fab x CD28 scFv BC8257 (VH-VL)-Fc

EC50 [1]: 624 nM
B7: TY29312 (bispecific antibody, human IgG1, kappa, N297A)
light: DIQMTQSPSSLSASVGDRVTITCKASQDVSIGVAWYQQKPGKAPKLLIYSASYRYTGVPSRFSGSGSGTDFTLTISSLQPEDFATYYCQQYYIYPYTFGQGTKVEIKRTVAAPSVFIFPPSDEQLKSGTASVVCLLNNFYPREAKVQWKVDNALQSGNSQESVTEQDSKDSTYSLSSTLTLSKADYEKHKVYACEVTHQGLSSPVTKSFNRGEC
heavy: B1 heavy
chain: B1 chain with G32S, S37G, G103D, A106D, L107F, I174K, Q199E, T238S, P240L
notes: anti-HER2 Fab x CD28 scFv BC8240 (VH-VL)-Fc

EC50 [1]: 6.97 nM
B8: TY29313 (bispecific antibody, human IgG1, kappa, N297A)
light: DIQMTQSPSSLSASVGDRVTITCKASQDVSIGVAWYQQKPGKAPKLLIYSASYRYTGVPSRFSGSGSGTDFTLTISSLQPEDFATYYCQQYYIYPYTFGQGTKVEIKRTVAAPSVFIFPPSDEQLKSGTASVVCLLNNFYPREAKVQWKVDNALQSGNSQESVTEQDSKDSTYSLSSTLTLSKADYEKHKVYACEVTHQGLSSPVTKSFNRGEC
heavy: B1 heavy
chain: B1 chain with G32S, S52E, L107F, Y172H, T238S, P240R
notes: anti-HER2 Fab x CD28 scFv BC8242 (VH-VL)-Fc

EC50 [1]: 417 nM
B9: TY29308 (bispecific antibody, human IgG1, kappa, N297A)
light: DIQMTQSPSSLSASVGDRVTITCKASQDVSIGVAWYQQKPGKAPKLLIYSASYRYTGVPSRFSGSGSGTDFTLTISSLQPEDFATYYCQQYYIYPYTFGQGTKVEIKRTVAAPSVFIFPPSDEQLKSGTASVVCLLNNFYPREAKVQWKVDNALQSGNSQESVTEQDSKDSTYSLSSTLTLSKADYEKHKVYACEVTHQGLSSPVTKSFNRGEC
heavy: B1 heavy
chain: B1 chain with G32S, L107F, I174K, P240L
notes: anti-HER2 Fab x CD28 scFv BC8230 (VH-VL)-Fc

Kd [2]: 5.25 nM
koff [2]: 0.000662 s⁻¹
kon [2]: 126000 M⁻¹ s⁻¹
Kd [3]: 2.35 nM
koff [3]: 0.00262 s⁻¹
kon [3]: 1.11e+06 M⁻¹ s⁻¹
EC50 [4]: 0.38 nM
B10: TY24881 (antibody, human IgG4 S228P, kappa, V domains shown)
VH: QVQLVQSGAEVKKPGSSVKVSCKASGFSLSTGGVGVTWIRQAPGQGLEWIGSIYHSGSTYYSPSLKSRVTITADKSTSTAYMELSSLRSEDTAVYYCARYDYGYYSFDVWGQGTLVTVSS
VL: DIQLTQSPSSLSASVGDRVTITCRASQSVDFDAFSFLAWYQQKPGKAPKLLIYAASTLQSGVPSRFSGSGSGTDFTLTISSLQPEDFATYYCQQSYSASTFGQGTKVEIKR
notes: hIgG4/S241P

Kd [2]: 7.19 nM
koff [2]: 0.000193 s⁻¹
kon [2]: 26900 M⁻¹ s⁻¹
Kd [3]: 13.2 nM
koff [3]: 0.00311 s⁻¹
kon [3]: 235000 M⁻¹ s⁻¹
EC50 [4]: 0.79 nM
B11: TY24877 (antibody, human IgG4 S228P, kappa, V domains shown)
VH: QVQLVQSGAEVKKPGSSVKVSCKASGYTFTNYGIHWVRQAPGQGLEWIGEIYHSGSTYYSPSLKSRVTITADKSTSTAYMELSSLRSEDTAVYYCARGPLSYYALDYWGQGTLVTVSS
VL: B16 VL with D28S, G30R, S31R, A34N, A50D, Q55E, S91Y, P96I
notes: hIgG4/S241P

— US20250257133A1 (ADAGENE PTE, published 2025)
